The DeepSol protein solubility set

Experiment: soluble on expression in E. coli; label from the status in PepcDB or PDB records

| Sequence | soluble on expression in E. coli |
| --- | --- |
| SSTDQGTNPADTDDLTPTTLSLAGDFPKATEEQWEREVEKVLNRGRPPEKQLTFAECLKRLTVHTVDGIDIVPMYRPKDAPKKLGYPGVAPFTRGTTVRNGDMDAWDVRALHEDPDEKFTRKAILEGLERGVTSLLLRVDPDAIAPEHLDEVLSDVLLEMTKVEVFSRYDQGAAAEALVSVYERSDKPAKDLALNLGLDPIGFAALQGTEPDLTVLGDWVRRLAKFSPDSRAVTIDANIYHNAGAGDVAELAWALATGAEYVRALVEQGFTATEAFDTINFRVTATHDQFLTIARLRALREAWARIGEVFGVDEDKRGARQNAITSWRELTREDPYVNILRGSIATFSASVGGAESITTLPFTQALGLPEDDFPLRIARNTGIVLAEEVNIGRVNDPAGGSYYVESLTRSLADAAWKEFQEVEKLGGMSKAVMTEHVTKVLDACNAERAKRLANRKQPITAVSEFPMIGARSIETKPFPAAPARKGLAWHRDSEVFEQLMDRSTSVSERPKVFLACLGTRRDFGGREGFSSPVWHIAGIDTPQVEGGTTAEIVEAFKKSGAQVADLCSSAKVYAQQGLEVAKALKAAGAKALYLSGAFKEFGDDAAEAEKLIDGRLFMGMDVVDTLSSTLDILGVAK | soluble |
| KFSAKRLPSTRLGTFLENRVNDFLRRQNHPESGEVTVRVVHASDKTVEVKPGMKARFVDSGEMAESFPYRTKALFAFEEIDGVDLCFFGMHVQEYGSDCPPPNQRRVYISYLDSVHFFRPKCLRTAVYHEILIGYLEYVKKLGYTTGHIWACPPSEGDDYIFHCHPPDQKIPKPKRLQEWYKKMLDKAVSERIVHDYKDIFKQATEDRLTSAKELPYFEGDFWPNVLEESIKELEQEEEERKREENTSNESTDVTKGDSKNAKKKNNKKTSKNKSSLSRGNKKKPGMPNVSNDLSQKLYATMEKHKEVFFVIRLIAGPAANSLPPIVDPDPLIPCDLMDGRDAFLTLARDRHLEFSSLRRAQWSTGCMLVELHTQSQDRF | soluble |
| MLSEVEFVEFQKENFSLLIDARSPREFLHSHLIGALNFYALNDEEYQEIGTIYKKNQALAKAMGASYICQNTTKHILEITQNFRIGEKVGIYCSRGGLRSKSIAVILSELGFRVVRLKGGFKAYRTFVTHYFENEINFDFFALCGNTGCGKTELLEQLPQAINLEKMANHLGSSFGDILGKQPTQKAFEAELFHNIQNLENFAFIESESRKIGDIILPLKFYEKMQKAFKIYCFCSLENRVRRIQKIYQEKMTPLKFQQCVQKISPYISLNLRQDLLQSYERKEWQKLIVMLLEYYDKTYKKPDKIDLELNTDDILKAKEELLDHFKVQLLF | not soluble |
| MGHHHHHHSHMYKRCKRGQDKCMMRPLSNPLTEAYNVQNLYQCLNCDDYHLCNGSLNCDPLVDREGIVCTVTGKYIQCNVRESPMCGAACLDVDIHPEDNTDCILRALFGDIVDIINKLDDIAEIKDKILAGDSLNEHIKKKIECTFPMCANIINCNSQGYSILCSMFVHIIMSIYANKTIYGHMLFKCTRNKKYDTIAKKIREKWMYLE | not soluble |
| MKHSVHFGAGNIGRGFIGEILFKNGFHIDFVDVNNQIIHALNEKGKYEIEIAQKGQSRIEVTNVAGINSKEHPEQVIEAIQKTDIITTAIGPNILPFIAELLAKGIEARRVAGNTQALDVMACENMIGGSQFLYQEVKKYLSPEGLTFADNYIGFPNAAVDRIVPAQSHEDSLFVVVEPFNEWVVETKRLKNPDLRLKDVHYEED | not soluble |
| MGSDKIHHHHHHMVRQFLPLNGLRAFEASARHLSFTRAAIELCVTQAAVSQQVKGLEKRLGVALFQRLPRGLKITAEGEALLPTVTSSFDQMATTLDRIEAGQVRELLFLGVVGTFAVGWLLPRLAAFQKRHPFIDVRVSTNNNRVDMAAEGLDFAIRFGQGSWHGTDAFRLFEAPLSPLCTPKLAEMLKEPADLMDATLLRSYRADEWSTWFAAAGVSPAAQVNAGIVFDTSLGMMEAALQGLGVALAPPSMFSRHLTSGAVMQPFPVTISLGSYWLTRLQSKPQTSAMQAFSDWLLETIGTA | not soluble |
| GPGSMPLMSADGSGELPPVMLHRYPVTLGLPTADPYALAIECMLRIVGAHYKKRDGGLPVTLEVPVDGRNKPAMKRHEGLTSCLQLIESATHQDAEVITSALEPEALCVRLTAEVVLIPAFVYITHSDAGILRNAIQKAVEPKVASMWQRFRGSYSRHVVQQTSFCRSYKNMGEAIENVERCLRAIEAICSINTAGNGMFILGTERPCSADALIYAAASSFFHADFASRQASGDIIAMQQRLREGCPTLLTYVERLRGLYFEDYSAFYHLRAPTCGMEGEATQKAAEETFVRGRWKVLAFTGVFSITYFLVANIDVFSAVLLHYLEDDGEEEFLEDEE | not soluble |
| MYLCEEHFKEYFERKVARTIEKYKLASKDERILVAVSGGKDSAVTAYVLKKLGYKIECLHLNLGIGEYSEKSEIYAKKQCEFIGAPLNIIRVKELLGYGIGEVRTSRPTCSYCGLTKRYIMNKFAYDNGFDAVATGHNLDDEASFLMNNLLHWNTEYLAKGGPLLPGEGKFVKKIKPLYELTEREVVAYAIAVGLEYIVEECPYARGATTLDMKEVLNELEEKRPGTKFNFVRGFLRKKKLFEPEVKGKDLKECKICGMPASGEICSFCKFWKLGKPLTFKIK | not soluble |
| MLTLLMCGGKGTRLGRGEKPLFEVCGMKLIDHSLLQYKDFDVIAITSPHTPATESYLAEKGVEVYRAAGKGYIEDYSEACRELAINEPVIVASADIVYIRDIAFDIVDAYMKTIKPALTVVMEGEPVGVNIIDSLLINTWQEEEIYSIEKDSVVNVNTVADVERAERLWTTMRKERGWQRDLEHHHHHH | soluble |
| MGSDKIHHHHHHMEKQNNHIDRRGFLKIVGISAATTTAALYGCGSGTKSSQGRNASSPVPTDQMTYRSVGGIKDKVSLLGYGCMRWPTVPSPEGKGDLINQEAVNELVDYAIAHGVNYFDTSPVYVQGWSEKATGIALKRHPREKLYIATKLSNFSNFSRENSLAMYHQSFKDMQVEYFDYYLLHAIGGGGMKVFNERYIDNGMLDFLLKEREAGRIRHLGWSFHGDVEVFDQVLAMHDTVKWDFVQIQLNYVDWRHATGNNVNAEYLYGELAKRNIAAVIMEPLLGGRLSNVPEHIVGRLKQRRPEDSVASWAFRFAGSPELVLTVLSGMTYMEHLQDNIRTYSPLVPLTDDDKEYLEETAQLMMQYPTIPCNDCKYCMPCPYGIDIPAILVHYNKCVNEGNIPQSQTSENYKEARRAFLVGYDRSVPKLRQASHCIGCNQCTPHCPQSIHIPEELHRIDRFVEQLKQGTL | not soluble |
| MGSDKIHHHHHHMYQNDFVMPKSVYLLNHSVGRPLQSLRQAFDERFFLPWQGSGREPWGDWLSVVEDFRVQLARLFNSETRLFCPQVNLSSGLTKLVQSHSRLRRPGAVILMSENDFPSMGFALRQALPEAEIRFIPANLDVSLAEVWQAHLTDDIDLVFISHAYSNTGQQAPLDYLIPKVRELGALSLVDVAQAAGVLPLDLNALKPDFMLGSSVKWLCGGPGAAYLWVSAAQLVHCSPQDVGWFSHENPFEFDIHDFRYHDSALKFWGGTPSVAPFALAAHSIGYFAELGSDKVRQHNLMQLQRIWRQAGDALVSPSDAARCSGTAILDFGEDQQAVVEALTQADISLDVRKQGMRISPHIYNGEQDLQRLLEALAPFCR | not soluble |
| SLMAGSFCWRMLGLVSKVGNRARCFSSVAASEEELLDFSGSELQFNSCSLHLSLHPFFNFLLGIHSCFVCKESKTDVKRCVVTQCGKFYHEACVKKYPLTVFESRGFRCPLHSCVSCHASNPSNPRPSKGKMMRCVRCPVAYHSGDACLAAGCSVIASNSIICTAHFTARKGKRHHAHVNVSWCFVCSKGGSLLCCESCPAAFHPDCLNIEMPDGSWFCNDCRAGKKLHFQDIIWVKLGNYRWWPAEVCHPKNVPPNIQKMKHEIGEFPVFFFGSKDYYWTHQARVFPYMEGDRGSRYQGVRGIGRVFKNALQEAEARFREIKLQREARETQESERKPPPYKHIKVNKPYGKVQIYTADISEIPKCNCKPTDENPCGFDSECLNRMLMFECHPQVCPAGEFCQNQCFTKRQYPETKIIKTDGKGWGLVAKRDIRKGEFVNEYVGELIDEEECMARIKHAHENDITHFYMLTIDKDRIIDAGPKGNYSRFMNHSCQPNCETLKWTVNGDTRVGLFAVCDIPAGTELTFNYNLDCLGNEKTVCRCGASNCSGFLGDRPKTSTTLSSEEKGKKTKKKTRRRRAKGEGKRQSEDECFRCGDGGQLVLCDRKFCTKAYHLSCLGLGKRPFGKWECPWHHCDVCGKPSTSFCHLCPNSFCKEHQDGTAFSCTPDGRSYCCEHDLGAASVRSTKTEKPPPEPGKPKGKRRRRRGWRRVTEGK | soluble |
| MGSDKIHHHHHHMHLSRDVVLLITHSGDFFTIDRVAEALAKKGVQPFRLDTDKFPLQVQLTAHFDKSQSHHTIEYDNHSISTEQVQAVWMRRIWEPNLSQELAPKFQEACIRESKATLDAFWDSLKGARWVDDLERINYANNKLRQLRIASEVGFVIPQTLVTNKAQAAREFFGQVNGKMVSKLLTTLSRSMEANSSFFLYTSIVKEKDLEDAESLRYCPMVFQEQIPKQMELRVVYVNGHVFVGALNADVYAATKADWRKPGVEVGAWQHHQLPDELVRRLQAFMGKFGLLFGSLDFILTPSGEYVFLEVNPIGEWGMLEKDLDLPIANAIADILLQN | not soluble |
| MAHHHHHHMEHQYFFIEATWLEAAAAGICSRNGIILKDAIAKAEKGIPVQIKNDSAPTMRSLIQTTHASLEQACERYLHQNARNLRLTRASKPTPAVEALNEAERASCRELVVRIAITGALTQYQRCTRKCILQDSSSLSPSLSHPAVSASKTVQGNGVTDKQLERSFQTTLLKGLLYAFESFQECHSMNRDHYPPRVDSNTPGTVGWDTLVLLYLVHRIPQVARHASGSAIDDCIGQVIRTWRKLLVALQSVDAQEAPEHSRRRGALSLVNGLLIILFQRYNTHQCAVLLGAVEHAETVAESSKEPARSILHPSRHMVSEVVTYHYYQGRMRLYERKLDEAHRILRIAYTLLPPAGFGNEPQRLNKERVRFFLSVAGVANGRRIPDEILRADEDLLPRLFGSLTAAIERGDPVCFSAALDSHASTFHRRGVYLILQQAKILCYLMVVARVHAAMAALSDVDNSRITIPTLLAAYTYITSEKPQSGKSSAESKKRSRDDEAVSPVSEARMAESVMDEDRMALWIAKLIARGYVRGYYSHEHKTLVLSKKVPFPLLQEEV | not soluble |
| VVTRIVILGGGPAGYEAALVAATSHPETTQVTVIDCDGIGGAAVLDDCVPSKTFIASTGLRTELRRAPHLGFHIDFDDAKISLPQIHARVKTLAAAQSADITAQLLSMGVQVIAGRGELIDSTPGLARHRIKATAADGSTSEHEADVVLVATGASPRILPSAQPDGERILTWRQLYDLDALPDHLIVVGSGVTGAEFVDAYTELGVPVTVVASQDHVLPYEDADAALVLEESFAERGVRLFKNARAASVTRTGAGVLVTMTDGRTVEGSHALMTIGSVPNTSGLGLERVGIQLGRGNYLTVDRVSRTLATGIYAAGDCTGLLPLASVAAMQGRIAMYHALGEGVSPIRLRTVAATVFTRPEIAAVGVPQSVIDAGSVAARTIMLPLRTNARAKMSEMRHGFVKIFCRRSTGVVIGGVVVAPIASELILPIAVAVQNRITVNELAQTLAVYPSLSGSITEAARRLMAHDDLDCTAAQDAAEQLALVPHHLPTSN | soluble |
| MFSPQAYLIFNMRKPPFDNIKVRQAVMHAFNRKLVVDNIFFGLGKISTSPFVPTEMFFDKDIPAIPFDMKKARALIKESGINPGDYTIRQLSFPYGATWDRLGEYTKQALEQLGFKVNVESTDAGGWASRTGNWDFDLTTTYSYQYGDPALGVQRLYVTSNIVKGSPFANMQGYSNPESDKLWEQAAAEVDPAKRQELYNKIQALLVAEVANGFLVDME | not soluble |
| MGSDKIHHHHHHMVNLDGGYTAYEQQHNNESFKLEKDKEIQIKDNRKTFNYSNLQCPGPIVNISKEIKNIAIGDQIEVVVTDHGFLNDIKSWVKQTGHTLVRLNDSGNEIRAIIQKEENKNIEVTHTKNGTTIVLFSGELDKAVAAMIIANGAKAAGRDVTIFCTFWGLNALKKIQSQRIKKKGIAKLFDFMLPNSPIKMPISKMNMFGVGNLMMRYVMKKKNVDDLPSLINQAVEQGVKLIACTMSMDVMGISKEELRDDVEYGGVGAYIGYTEQANHNLFI | not soluble |
